Laboratory results taken from patent US20190248900A1 (Y BIOLOGICS, published 2019).
Changes are numbered by the printed parent chain.

B1: PD1-45D6 (antibody, V domains shown)
VH: QVQLVESGGGVVQPGRSLRLSCAASGFTFSSYAMHWVRQVPGKGLEWVAVISYDGNDKYYADSVKGRFTISRDNSKNTLYLQMNSLRAEDTAVYYCVPTTFEYWGQGSQVTVSS
VL: DIVMTQTPLSLPVTPGEAASISCRSSQSLLDSDDGKTYLDWYLQKPGQSPQLLIYTLSYRASGVPDRFSGSGSGTEFNLRISRVEAEDVGIYYCMQRVEFPFTFGQGTKLDIK
notes: scFv-phage in the screening ELISA; whole IgG in the other assays
B2: PD1-41C9 (antibody, V domains shown)
VH: QMQLVESGGGVVQPGRSLRLSCAASGFTFSSYAMHWVRQAPGKGLEWVAVISYDGSNKYYADSVKGRFTISRDNSKNTLYLQMNRLRSEDTAVYYCTTTTFDSWGQGTLITVSS
VL: DIVMTQTPLSLPVTPGEAASISCRSSQSLLDSEDGNTYLDWYLQKPGQSPQLLIYTLSHRASGVPDRFSGSGSGTDFTLKISRVAAEDVGLYYCLQRMGFPYTFGQGTKLDIK
notes: as for B1
B3: PD1-49A2 (antibody, V domains shown)
VH: B2 VH with M2V, S75P, R85S, S88A, Q106R, I110V
VL: B2 VL with T7S, A18P, L30F, E33D, A85E, L91I, L110V, D111E
notes: scFv-phage in the screening ELISA; whole IgG in the other assays; also called Parent 49A2

Biological target: T1, SPOCK1 (Homo sapiens (Human), UniProt Q08629 22-439)
T1 sequence: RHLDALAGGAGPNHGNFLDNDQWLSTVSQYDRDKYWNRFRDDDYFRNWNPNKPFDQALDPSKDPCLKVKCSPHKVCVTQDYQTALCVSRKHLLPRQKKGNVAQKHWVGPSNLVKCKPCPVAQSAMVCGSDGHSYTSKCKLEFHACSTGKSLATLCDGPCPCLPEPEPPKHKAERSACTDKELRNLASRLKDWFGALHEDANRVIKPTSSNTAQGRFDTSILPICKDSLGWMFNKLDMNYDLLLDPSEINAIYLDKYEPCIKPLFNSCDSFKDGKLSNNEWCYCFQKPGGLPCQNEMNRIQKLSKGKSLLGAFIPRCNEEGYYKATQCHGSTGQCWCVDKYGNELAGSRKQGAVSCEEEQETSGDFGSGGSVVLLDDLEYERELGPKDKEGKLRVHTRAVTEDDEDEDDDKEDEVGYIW
Experiment: ELISA

| Binder | binding result |
| --- | --- |
| B1 | no binding (tested: 1 ug/ml) |
| B2 | no binding (tested: 1 ug/ml) |
| B3 | no binding (tested: 1 ug/ml) |

Biological target: CDCP1 (Homo sapiens (Human), UniProt Q9H5V8 30-667)
Experiment: ELISA

Sequence of CDCP1 (Q9H5V8 30-667 limits assumed): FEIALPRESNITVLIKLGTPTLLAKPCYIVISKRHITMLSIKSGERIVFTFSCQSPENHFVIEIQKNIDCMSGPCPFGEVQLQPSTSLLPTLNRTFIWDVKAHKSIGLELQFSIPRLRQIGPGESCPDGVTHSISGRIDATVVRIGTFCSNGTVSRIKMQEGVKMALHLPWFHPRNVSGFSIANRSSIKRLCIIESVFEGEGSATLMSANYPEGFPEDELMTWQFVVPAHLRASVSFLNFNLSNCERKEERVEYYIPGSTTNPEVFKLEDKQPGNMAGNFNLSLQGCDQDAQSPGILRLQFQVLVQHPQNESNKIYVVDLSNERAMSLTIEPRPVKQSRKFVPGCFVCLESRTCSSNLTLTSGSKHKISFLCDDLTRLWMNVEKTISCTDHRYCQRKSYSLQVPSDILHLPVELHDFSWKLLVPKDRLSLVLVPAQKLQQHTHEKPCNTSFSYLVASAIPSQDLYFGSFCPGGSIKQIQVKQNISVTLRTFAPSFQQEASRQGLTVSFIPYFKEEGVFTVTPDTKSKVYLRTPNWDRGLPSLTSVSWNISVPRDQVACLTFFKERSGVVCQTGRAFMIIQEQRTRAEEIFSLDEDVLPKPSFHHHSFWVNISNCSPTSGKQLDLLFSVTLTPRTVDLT

| Binder | binding result |
| --- | --- |
| B1 | no binding (tested: 1 ug/ml) |
| B2 | no binding (tested: 1 ug/ml) |
| B3 | no binding (tested: 1 ug/ml) |

Biological target: T2, SLITRK2 (Homo sapiens (Human), UniProt Q9H156 22-621)
T2 sequence: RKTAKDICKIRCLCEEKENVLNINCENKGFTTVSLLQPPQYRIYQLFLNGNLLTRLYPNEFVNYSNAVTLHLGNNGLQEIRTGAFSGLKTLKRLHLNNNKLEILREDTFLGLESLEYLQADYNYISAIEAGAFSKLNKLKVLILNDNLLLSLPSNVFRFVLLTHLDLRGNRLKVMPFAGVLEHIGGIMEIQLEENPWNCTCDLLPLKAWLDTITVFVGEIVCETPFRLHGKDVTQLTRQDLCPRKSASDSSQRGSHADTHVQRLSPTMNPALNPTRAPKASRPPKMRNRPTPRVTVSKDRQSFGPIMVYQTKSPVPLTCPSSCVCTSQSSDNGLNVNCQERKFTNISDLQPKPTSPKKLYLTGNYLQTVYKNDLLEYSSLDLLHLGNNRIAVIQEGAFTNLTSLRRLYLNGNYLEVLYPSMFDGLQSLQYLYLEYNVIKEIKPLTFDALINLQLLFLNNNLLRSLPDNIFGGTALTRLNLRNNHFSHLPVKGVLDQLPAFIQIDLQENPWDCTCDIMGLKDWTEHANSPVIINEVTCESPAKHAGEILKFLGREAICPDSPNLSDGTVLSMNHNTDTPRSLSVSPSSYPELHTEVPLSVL
Experiment: ELISA

| Binder | binding result |
| --- | --- |
| B1 | no binding (tested: 1 ug/ml) |
| B2 | no binding (tested: 1 ug/ml) |
| B3 | no binding (tested: 1 ug/ml) |

Biological target: T3, AGR3 (Homo sapiens (Human), UniProt Q8TD06 22-166)
T3 sequence: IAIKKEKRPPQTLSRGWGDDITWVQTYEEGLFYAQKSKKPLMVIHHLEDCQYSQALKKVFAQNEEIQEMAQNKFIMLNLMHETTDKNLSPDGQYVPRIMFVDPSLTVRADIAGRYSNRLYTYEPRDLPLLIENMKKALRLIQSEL
Experiment: ELISA

| Binder | binding result |
| --- | --- |
| B1 | no binding (tested: 1 ug/ml) |
| B2 | no binding (tested: 1 ug/ml) |
| B3 | no binding (tested: 1 ug/ml) |

Biological target: T4, SEMA5A (Homo sapiens (Human), UniProt Q13591 23-968)
T4 sequence: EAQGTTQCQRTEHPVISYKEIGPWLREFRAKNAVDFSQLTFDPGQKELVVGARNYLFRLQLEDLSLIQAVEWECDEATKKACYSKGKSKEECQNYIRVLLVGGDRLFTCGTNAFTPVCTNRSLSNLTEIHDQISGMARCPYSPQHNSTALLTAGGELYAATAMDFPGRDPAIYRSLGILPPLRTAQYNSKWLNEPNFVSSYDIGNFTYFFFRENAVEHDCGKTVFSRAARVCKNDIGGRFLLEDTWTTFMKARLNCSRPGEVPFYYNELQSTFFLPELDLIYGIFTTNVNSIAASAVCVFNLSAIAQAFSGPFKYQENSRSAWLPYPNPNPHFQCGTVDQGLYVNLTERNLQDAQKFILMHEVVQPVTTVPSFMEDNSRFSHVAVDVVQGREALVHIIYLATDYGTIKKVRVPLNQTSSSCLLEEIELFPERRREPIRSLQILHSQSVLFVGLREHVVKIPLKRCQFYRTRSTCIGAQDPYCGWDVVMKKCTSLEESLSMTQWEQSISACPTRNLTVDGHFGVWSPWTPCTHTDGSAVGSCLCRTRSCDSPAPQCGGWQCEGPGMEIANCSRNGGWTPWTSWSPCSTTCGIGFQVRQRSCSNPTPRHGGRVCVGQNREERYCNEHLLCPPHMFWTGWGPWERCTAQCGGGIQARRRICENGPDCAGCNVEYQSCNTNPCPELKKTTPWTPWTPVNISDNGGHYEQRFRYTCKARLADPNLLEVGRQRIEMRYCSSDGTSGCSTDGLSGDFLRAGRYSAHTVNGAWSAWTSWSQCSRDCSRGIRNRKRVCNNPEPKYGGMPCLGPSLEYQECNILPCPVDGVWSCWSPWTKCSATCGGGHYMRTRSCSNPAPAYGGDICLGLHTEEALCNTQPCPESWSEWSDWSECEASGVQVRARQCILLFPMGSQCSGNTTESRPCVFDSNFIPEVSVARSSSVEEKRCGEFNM
Experiment: ELISA

| Binder | binding result |
| --- | --- |
| B1 | no binding (tested: 1 ug/ml) |
| B2 | no binding (tested: 1 ug/ml) |
| B3 | no binding (tested: 1 ug/ml) |

Biological target: T5, CD86 (Homo sapiens (Human), UniProt P42081 24-247)
T5 sequence: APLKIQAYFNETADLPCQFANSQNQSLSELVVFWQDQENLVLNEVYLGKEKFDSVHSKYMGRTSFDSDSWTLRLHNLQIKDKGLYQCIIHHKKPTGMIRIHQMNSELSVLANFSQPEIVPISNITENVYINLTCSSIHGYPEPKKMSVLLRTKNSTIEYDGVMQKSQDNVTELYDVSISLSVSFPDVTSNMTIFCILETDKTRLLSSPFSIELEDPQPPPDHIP
Experiment: ELISA

| Binder | binding result |
| --- | --- |
| B1 | no binding (tested: 1 ug/ml) |
| B2 | no binding (tested: 1 ug/ml) |
| B3 | no binding (tested: 1 ug/ml) |

Biological target: T6, CD320 (Homo sapiens (Human), UniProt Q9NPF0 36-229)
T6 sequence: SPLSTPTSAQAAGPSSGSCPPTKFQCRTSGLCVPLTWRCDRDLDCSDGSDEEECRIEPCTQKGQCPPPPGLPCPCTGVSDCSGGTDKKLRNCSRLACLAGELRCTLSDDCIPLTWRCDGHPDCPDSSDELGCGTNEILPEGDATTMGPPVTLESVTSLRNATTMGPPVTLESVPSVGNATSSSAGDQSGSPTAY
Experiment: ELISA

| Binder | binding result |
| --- | --- |
| B1 | no binding (tested: 1 ug/ml) |
| B2 | no binding (tested: 1 ug/ml) |
| B3 | no binding (tested: 1 ug/ml) |

Biological target: MICA (Homo sapiens (Human), UniProt Q29983 24-307)
Experiment: ELISA

Sequence of MICA (Q29983 24-307 limits assumed): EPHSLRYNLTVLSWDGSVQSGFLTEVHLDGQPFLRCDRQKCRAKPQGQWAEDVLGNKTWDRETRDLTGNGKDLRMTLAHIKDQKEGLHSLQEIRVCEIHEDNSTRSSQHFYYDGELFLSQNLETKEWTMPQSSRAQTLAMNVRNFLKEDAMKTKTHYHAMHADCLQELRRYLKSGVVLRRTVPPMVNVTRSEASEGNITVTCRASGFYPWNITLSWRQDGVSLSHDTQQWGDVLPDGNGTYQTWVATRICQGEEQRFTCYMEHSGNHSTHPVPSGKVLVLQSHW

| Binder | binding result |
| --- | --- |
| B1 | no binding (tested: 1 ug/ml) |
| B2 | no binding (tested: 1 ug/ml) |
| B3 | no binding (tested: 1 ug/ml) |
